Assay results: patent US11339209B2, “Compositions, methods, and therapeutic uses related to fusogenic protein minion” (NOVARTIS AG, priority 2016, dated 2022)

T1: Myomaker (Mus musculus, UniProt Q9D1N4)
T1 construct: endogenous in cells; host or cells: Differentiating muscle cells
T1 sequence (Q9D1N4 1-221): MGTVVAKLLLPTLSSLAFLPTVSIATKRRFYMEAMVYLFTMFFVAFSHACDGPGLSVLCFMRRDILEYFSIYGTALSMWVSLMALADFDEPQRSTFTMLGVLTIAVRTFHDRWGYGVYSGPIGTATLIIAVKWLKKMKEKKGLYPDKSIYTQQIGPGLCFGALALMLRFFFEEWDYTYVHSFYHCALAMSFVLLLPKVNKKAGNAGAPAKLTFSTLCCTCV


Assays:
MINION^KD C2C12 cells = test: In vitro reconstitution (complementation) assay of the fusion defect in MINION^KD C2C12 cells; assay type: cell-based, mouse; settings: retroviral cDNA expression, 5 days in differentiation medium, MHC immunofluorescence, MINION tested tagged and untagged
Method: For primary myoblasts derived from both embryos and adult mice, around 3000 cells in 50 μl myoblast growth medium (1:1 mixture of DMEM low glucose and Ham's F-10 Nutrient Mix; 20% (v/v) FBS; freshly added 2.5 ng/ml rhFGF) were seeded into each well of a 384-well Collagen-coated PerkinElmer CellCarrier™ plate (6007550) for imaging purposes. The next day, differentiation medium (DMEM high glucose (Gibco® 11995073) with 3% to 5% horse serum) was added to the cells (DM day 0). Differentiation medium was replaced daily. The cells were fixed at DM day 3 and day 4 for immunofluorescence staining. For C2C12 cells, ˜1500-2000 cells were seeded into each well of a 384-well plate (DMEM high glucose with 10% FBS) and around 2×10^5 cells were seeded into each well of a 6-well plate, using C2C12 growth medium (DMEM high glucose with 10% FBS). On the next day, differentiation medium (DMEM high glucose with 2% horse serum) was added to the cells (DM day 0), and differentiation medium was likewise replaced daily. […]
For the cloning of cDNA constructs, the coding sequences (CDS) of mouse MINION (for the 84 aa isoform), human MINION ortholog, mouse tmem8c (myomaker), nanoluc (control A), luciferase (control B), mouse MINION with 1 bp insertion, human MINION with 1 bp deletion, and mouse MINION truncation (39 aa form) were synthesized (IDT) with attB sites at both ends and a consensus Kozak sequence (5′ GCCACC (SEQ ID NO: 94)) before the start codon. […] After expression testing of the two 3F1H-tagged mouse and human MINION constructs, it was noticed that two bands were detected by Western blot with anti-FLAG antibody (FIG. 16). […]
To examine the knockdown efficiency of the mouse MINION transcript, shRNA-encoding lentiviruses were used to infect C2C12 cells. […] Based on an estimated viral titer of 1×10^8 vp/ml (as measured on 293T cells), a virus amount equivalent to MOI30 on 293T cells was used on C2C12 cells. […] Infection efficiency of 70-85% was routinely achieved as judged by FACS analysis, though GFP signal in undifferentiated C2C12 cells was barely discernable by EVOS fluorescence microscopy. […]

10T1/2 fibroblasts = test: Heterologous co-expression, syncytia formation between fibroblasts; assay type: cell-based; settings: retroviral expression in 10T1/2 fibroblasts, growth medium
Method: In order to infect C2C12 cells and 10T1/2 cells, neat virus was incubated with 8 μg/ml polybrene at 37° C. for 10 min and then added to the cells, which were then incubated for 15 min at 37° C. One round of spin infection was performed using 24-well or 12-well plates at 1100 g for 1-1.5 hours and 32° C. After 4-6 hours, fresh neat virus with polybrene was added and a second round of spin infection was performed. Fresh medium was added to the infected cells to dilute the polybrene. […] Infection efficiency of this two-round infection method was generally >95% over a large range of viral concentrations, therefore FACS was not generally necessary. This strong GFP signal was used to mark the boundary of cells, in addition to phase contrast imaging and nuclear markers (FIGS. 22, 23A-23F); moreover, in cells that were fixed with 4% PFA but not permeabilized with detergents, the GFP signal was higher in the nuclear region, allowing unambiguous delineation of both the cell boundary and nuclei. […]
(§1) Cell labeling was performed according to manufacturer's instructions with slight modifications. […] After the last wash, the cells were counted and diluted to the concentration needed for the final mixing experiment in a 384-well or 24-well plate, and were incubated at 37° C. for 30 min. […]

C2C12 myoblasts = test: Cell mixing of 10T1/2 fibroblasts with differentiating C2C12 myoblasts; assay type: cell-based, mouse; settings: 10T1/2 fibroblasts mixed with wild-type C2C12 myoblasts (1:2), 3 days in differentiation medium
Text: Differentiating myoblasts and myotubes are marked by MHC. 10T1/2 fibroblasts were infected with retrovirus expressing GFP and proteins of interest (left, NanoLuc control; middle, mouse Myomaker; right, mouse Minion). DAPI marks nuclei. […] White arrows indicate MHC-positive myotubes that are not fused to fibroblasts. n=2 (eight technical replicates each). 0.7 mm×0.7 mm fields are shown. […] 0.7 mm×0.7 mm fields at ×20 magnification are shown. Control and Minion^KD myoblasts were used. Differentiating myoblasts and myotubes are marked by MHC. 10T1/2 fibroblasts expressing Myomaker were labelled with CellTrace Violet dye before mixing. […]
as §1
C3H 10T1/2 fibroblasts were infected with retroviruses encoding GFP and either control, Myomaker or Minion; GFP-positive fibroblasts were then mixed with wild-type C2C12 myoblasts and kept in differentiation medium for 3-4 days. Differentiating myoblasts and myotubes were marked by MHC expression, and fusion of GFP-positive fibroblasts to myotubes was readily detected when Myomaker, but not Minion or control, was expressed (FIG. 28A).

Myomaker = target: T1, Myomaker; test: Co-immunoprecipitation of Minion with Myomaker in differentiating muscle cells; assay type: binding; settings: tagged and untagged Minion, endogenous and overexpressed Myomaker

Row | Molecule | rescue of the cell fusion defect (MINION^KD C2C12 cells) | cell fusion between fibroblasts (multinuclear syncytia) (10T1/2 fibroblasts) | fusion of fibroblasts expressing the protein to wild-type differentiating myoblasts and myotubes (C2C12 myoblasts) | physical interaction with Myomaker (co-immunoprecipitation, western blot) (Myomaker)
1 | human Minion: human ortholog of MINION, 84 codon ORF, expressed from retroviral cDNA, untagged or C-terminally epitope-tagged (protein, listed as Homo sapiens) MPTPLLPLLLRLLLSRLLLPAARLARQYLLPLLRRLARRLGSQDMREALLGCLLFILSQRHSPDAGEASRVDRLERRERLGPQK | strongly reconstituted cell fusion | – | – | –
2 | Myomaker: muscle-specific transmembrane protein; mouse tmem8c CDS expressed from retroviral vector (protein) MGTVVAKLLLPTLSSLAFLPTVSIATKRRFYMEAMVYLFTMFFVAFSHACDGPGLSVLCFMRRDILEYFSIYGTALSMWVSLMALADFDEPQRSTFTMLGVLTIAVRTFHDRWGYGVYSGPIGTATLIIAVKWLKKMKEKKGLYPDKSIYTQQIGPGLCFGALALMLRFFFEEWDYTYVHSFYHCALAMSFVLLLPKVNKKAGNAGAPAKLTFSTLCCTCV | incapable of rescuing the fusion defect | neither Myomaker nor Minion alone (FIG. 21D) was sufficient | fused with wild-type differentiating myoblasts and myotubes | –
3 | mouse MINION: 84 aa mouse microprotein inducer of fusion, expressed from retroviral cDNA, untagged or C-terminally 3×FLAG-1×HA-tagged (protein, listed as Mus musculus) MPVPLLPMVLRSLLSRLLLPVARLARQHLLPLLRRLARRLSSQDMREALLSCLLFVLSQQQPPDSGEASRVDHSQRKERLGPQK | robustly rescued fusion | neither Myomaker nor Minion alone (FIG. 21D) was sufficient | failed to do so | no detectable physical interaction
